The target of the assay is Ras:G12V mutant (UniProt P01112). Put plainly: pull-down.

B1: RIN1-RA:R629A mutant (natural protein)
chain: MESPGESGAGSPGAPSPSSFTTGHLAREKPAQDPLYDVPNASGGQAGGPQRPGRVVSLRERLLLTRPVWLQLQANAAAALHMLRTEPPGTFLVRKSNTRQCQALCMRLPEASGPSFVSSHYILESPGGVSLEGSELMFPDLVQLICAYCHTRDILLLPLQLPRAIHHAATHKELEAISHLGIEFWSSSLNIKAQRGPAGGPVLPQLKARSPQELDQGTGAALCFFNPLFPGDLGPTKREKFKRSFKVRVSTETSSPLSPPAVPPPPVPVLPGAVPSQTERLPPCQLLRRESSVGYRVPAGSGPSLPPMPSLQEVDCGSPSSSEEEGVPGSRGSPATSPHLGRRRPLLRSMSAAFCSLLAPERQVGRAAAALMQDRHTAAGQLVQDLLTQVRAGPEPQELQGIRQALSRARAMLSAELGPEKLLSPKRLEHVLEKSLHCSVLKPLRPILAARLRRRLAADGSLGRLAEGLRLARAQGPGAFGSHLSLPSPVELEQVRQKLLQLLRTYSPSAQVKRLLQACKLLYMALRTQEGEGAGADEFLPLLSLVLAHCDLPELLLEAEYMSELLEPSLLTGEGGYYLTSLSASLALLSGLGQAHTLPLSPVQELRRSLSLWEQRRLPATHCFQHLLAVAYQDPSSGCTSKTLAVPPEASIATLNQLCATKFRVTQPNTFGLFLYKEQGYHRLPPGALAHRLPTTGYLVYRRAEWPETQGAVTEEEGSGQSEARSRGEEQGCQGDGDAGVKASPRDIREQSETTAEGGQGQAQEGPAQPGEPEAEGSRAAEE
Regarding B1, the percent inhibition of binding amounted to 80%.

Source of the values: paper PMC8194098.
